Experimental data published in article PMC10511499, “Conserved roles for the dynein intermediate chain and Ndel1 in assembly and activation of dynein” (Nature Communications, 2023).
Substitutions are numbered along the chain they refer to. Numbers in names are those of the source.

B1: full-length yeast Ndl1 with C-terminal FLAG-SNAPf (natural protein, S. cerevisiae, UniProt Q06568 1-189, looked up)
chain: MVPNLDLETAIQIISSLETQLSELEGATKEYENDLEQVISKLKSDLLESQQQNKCNKKQITDLEIQVDELENENIQLRNKIETLQLESDRRLERNVLLEHELLDTKEALQKLRVSKEEATSGETRRNTRSLPSQNKKMKLFKDTIKVSTTSSTLYLQNMAKTNNAARSHCNIPNTQITQSTVIATTSSV
modifications: JFX554-SNAP or JFX650-SNAP ligand on the SNAPf tag
notes: Ndl1, yeast homolog of Ndel1, full length; also called Ndl1-SNAPf; source: S. cerevisiae, overexpressed from GAL1p; purified (IgG beads, TEV elution, SEC); not shown: SNAPf, C-terminal, kept; ZZ, C-terminal, cleaved; 8xHis, C-terminal, cleaved
B2: yeast Ndl1 coiled-coil domain (Ndl1^CC, residues 2-132) (domain or fragment, S. cerevisiae, UniProt Q06568 2-132, looked up)
chain: VPNLDLETAIQIISSLETQLSELEGATKEYENDLEQVISKLKSDLLESQQQNKCNKKQITDLEIQVDELENENIQLRNKIETLQLESDRRLERNVLLEHELLDTKEALQKLRVSKEEATSGETRRNTRSLP
notes: Ndl1, S. cerevisiae, coiled-coil domain, residues 2-132; No cleavage of the tags is described; also called StrepII-sfGFP-Ndl1^CC; source: E. coli BL21-CodonPlus (DE3)-RIPL, purified (Strep-tactin XT, SEC)
B3: yeast Ndl1^CC E64A R78A (domain or fragment, S. cerevisiae, UniProt Q06568 2-132, looked up)
chain: B2 chain with E63A, R77A
notes: Ndl1, S. cerevisiae, residues 2-132, E64 and R78 changed to alanines; also called interface 2 mutant of Ndl1^CC; source: E. coli BL21-CodonPlus (DE3)-RIPL, purified
B4: LIS1, wild type, as used in mass photometry (construct not told) (natural protein, human, UniProt P43034 1-410, looked up)
chain: MVLSQRQRDELNRAIADYLRSNGYEEAYSVFKKEAELDVNEELDKKYAGLLEKKWTSVIRLQKKVMELESKLNEAKEEFTSGGPLGQKRDPKEWIPRPPEKYALSGHRSPVTRVIFHPVFSVMVSASEDATIKVWDYETGDFERTLKGHTDSVQDISFDHSGKLLASCSADMTIKLWDFQGFECIRTMHGHDHNVSSVAIMPNGDHIVSASRDKTIKMWEVQTGYCVKTFTGHREWVRMVRPNQDGTLIASCSNDQTVRVWVVATKECKAELREHEHVVECISWAPESSYSSISEATGSETKKSGKPGPFLLSGSRDKTIKMWDVSTGMCLMTLVGHDNWVRGVLFHSGGKFILSCADDKTLRVWDYKNKRCMKTLNAHEHFVTSLDFHKTAPYVVTGSVDQTVKVWECR
notes: LIS1, human; also called WT LIS1; source: Sf9 cells, purified
B5: human Ndel1 coiled-coil domain (Ndel1^CC, residues 1-195) (domain or fragment, UniProt Q9GZM8 1-195, looked up)
chain: MDGEDIPDFSSLKEETAYWKELSLKYKQSFQEARDELVEFQEGSRELEAELEAQLVQAEQRNRDLQADNQRLKYEVEALKEKLEHQYAQSYKQVSVLEDDLSQTRAIKEQLHKYVRELEQANDDLERAKRATIVSLEDFEQRLNQAIERNAFLESELDEKESLLVSVQRLKDEARDLRQELAVRERQQEVTRKSA
notes: Ndel1, human, coiled-coil domain, residues 1-195; also called NudEL^CC; source: E. coli BL21-CodonPlus (DE3)-RIPL, purified (Strep-tactin XT, HiTrap Q, SEC)
B6: yeast Nip100 coiled-coil 1 (Nip100^CC1, residues 97-377) with N-terminal eGFP (domain or fragment, S. cerevisiae, UniProt P33420 97-377, looked up)
chain: EHSLLNGNAAQETIKNLQVKCESLASKLNKIKIENHELKTSVEKLSTNETVLLSKISRLDKLVKELKVENGNMKTHLDNFNHLLDASDSVMAPDLDKGTLLERSHLLQGLLDQTKLSYDKAMKVQEDLLEENTQLLEENAVLSKKISDLGLQLQQTNNTIGDLALQIEAQSKSSNIVDKLTNDNILLTSNIKALNNELEELQAKEKLDENLRITYEQLEQELRLQLSNLQSALENEKEIAGTYIEENSRLKATLESIEAKTSHKFQSLELKVNTLQEELYQ
notes: Nip100, yeast homolog of p150^Glued, coiled-coil 1, residues 97-377; also called GST-eGFP-Nip100^CC1; source: E. coli BL21-CodonPlus (DE3)-RIPL, purified (glutathione agarose, Ulp1 digest, SEC); not shown: GST, N-terminal, cleaved; SUMO, N-terminal, cleaved
B7: full-length yeast Pac1 with C-terminal FLAG-SNAPf (natural protein, S. cerevisiae, UniProt P39946 1-494, looked up)
chain: MTNWQQQLPLTDTQKNELDKSVLRYLNWNYKQTVRHEHAQDYESVRHAIVTLSGFLLQESVDRQEFISNNDTSNESMVDIDELLLPKKWNSIVRLQKKIIELEQNTETLVSQIKDLNTQVSELAQFKPTTSNGTSAHNVLKWIPRNLPSCLINVESSVTSVKLHPNLPIVFVATDHGKLYAFDLFNYTIPLASLQSHTKAITSMDVLFTNYTNSSKKNYLVIVTASKDLQIHVFKWVSEECKFQQIRSLLGHEHIVSAVKIWQKNNDVHIASCSRDQTVKIWDFHNGWSLKTFQPHSQWVRSIDVLGDYIISGSHDTTLRLTHWPSGNGLSVGTGHEFPIEKVKFIHFIEDSPEIRFRTPSTDRYKNWGMQYCVSASRDRTIKIWEIPLPTLMAHRAPIPNPTDSNFRCVLTLKGHLSWVRDISIRGQYLFSCADDKSVRCWDLNTGQCLHVWEKLHTGFVNCLDLDVDFDSNVTPRQMMVTGGLDCKSNVFMR
notes: Pac1, yeast homolog of LIS1, full length; also called WT Pac1; Pac1-SNAPf; source: S. cerevisiae, overexpressed from GAL1p; purified (IgG beads, TEV elution); not shown: 8xHis, N-terminal, cleaved; ZZ, N-terminal, cleaved; SNAPf, C-terminal, kept

Key:
[1] = target: T1, yeast dynein complex, wild type (Dyn1, Pac11, Dyn3, Dyn2) (S. cerevisiae, UniProt P36022 1-4092; P40960 1-533; Q04949 1-312; Q02647 1-92, JF503-, JFX549- or JFX646-HaloTag ligand on the HaloTag); assay: TIRF microscopy microtubule recruitment assay; yeast proteins; dynein on taxol-stabilised microtubules held by anti-tubulin antibody; fluorescent partner flowed in, TEV buffer with 1 mM DTT, 5-10 min; intensity along microtubules; settings: both partners purified
T1 construct: dynein heavy chain Dyn1, S. cerevisiae; dynein intermediate chain Pac11, S. cerevisiae; dynein light-intermediate chain Dyn3, S. cerevisiae; dynein light chain Dyn2, S. cerevisiae; also called WT dynein; HaloTag-Dyn1 complex; source: S. cerevisiae, all genes overexpressed from GAL1p; purified (IgG sepharose, TEV elution); not shown: 8His (also printed 6xHis), N-terminal, cleaved; ZZ, N-terminal, …
T1 sequence (P36022 whole entry, chain 1 of 4): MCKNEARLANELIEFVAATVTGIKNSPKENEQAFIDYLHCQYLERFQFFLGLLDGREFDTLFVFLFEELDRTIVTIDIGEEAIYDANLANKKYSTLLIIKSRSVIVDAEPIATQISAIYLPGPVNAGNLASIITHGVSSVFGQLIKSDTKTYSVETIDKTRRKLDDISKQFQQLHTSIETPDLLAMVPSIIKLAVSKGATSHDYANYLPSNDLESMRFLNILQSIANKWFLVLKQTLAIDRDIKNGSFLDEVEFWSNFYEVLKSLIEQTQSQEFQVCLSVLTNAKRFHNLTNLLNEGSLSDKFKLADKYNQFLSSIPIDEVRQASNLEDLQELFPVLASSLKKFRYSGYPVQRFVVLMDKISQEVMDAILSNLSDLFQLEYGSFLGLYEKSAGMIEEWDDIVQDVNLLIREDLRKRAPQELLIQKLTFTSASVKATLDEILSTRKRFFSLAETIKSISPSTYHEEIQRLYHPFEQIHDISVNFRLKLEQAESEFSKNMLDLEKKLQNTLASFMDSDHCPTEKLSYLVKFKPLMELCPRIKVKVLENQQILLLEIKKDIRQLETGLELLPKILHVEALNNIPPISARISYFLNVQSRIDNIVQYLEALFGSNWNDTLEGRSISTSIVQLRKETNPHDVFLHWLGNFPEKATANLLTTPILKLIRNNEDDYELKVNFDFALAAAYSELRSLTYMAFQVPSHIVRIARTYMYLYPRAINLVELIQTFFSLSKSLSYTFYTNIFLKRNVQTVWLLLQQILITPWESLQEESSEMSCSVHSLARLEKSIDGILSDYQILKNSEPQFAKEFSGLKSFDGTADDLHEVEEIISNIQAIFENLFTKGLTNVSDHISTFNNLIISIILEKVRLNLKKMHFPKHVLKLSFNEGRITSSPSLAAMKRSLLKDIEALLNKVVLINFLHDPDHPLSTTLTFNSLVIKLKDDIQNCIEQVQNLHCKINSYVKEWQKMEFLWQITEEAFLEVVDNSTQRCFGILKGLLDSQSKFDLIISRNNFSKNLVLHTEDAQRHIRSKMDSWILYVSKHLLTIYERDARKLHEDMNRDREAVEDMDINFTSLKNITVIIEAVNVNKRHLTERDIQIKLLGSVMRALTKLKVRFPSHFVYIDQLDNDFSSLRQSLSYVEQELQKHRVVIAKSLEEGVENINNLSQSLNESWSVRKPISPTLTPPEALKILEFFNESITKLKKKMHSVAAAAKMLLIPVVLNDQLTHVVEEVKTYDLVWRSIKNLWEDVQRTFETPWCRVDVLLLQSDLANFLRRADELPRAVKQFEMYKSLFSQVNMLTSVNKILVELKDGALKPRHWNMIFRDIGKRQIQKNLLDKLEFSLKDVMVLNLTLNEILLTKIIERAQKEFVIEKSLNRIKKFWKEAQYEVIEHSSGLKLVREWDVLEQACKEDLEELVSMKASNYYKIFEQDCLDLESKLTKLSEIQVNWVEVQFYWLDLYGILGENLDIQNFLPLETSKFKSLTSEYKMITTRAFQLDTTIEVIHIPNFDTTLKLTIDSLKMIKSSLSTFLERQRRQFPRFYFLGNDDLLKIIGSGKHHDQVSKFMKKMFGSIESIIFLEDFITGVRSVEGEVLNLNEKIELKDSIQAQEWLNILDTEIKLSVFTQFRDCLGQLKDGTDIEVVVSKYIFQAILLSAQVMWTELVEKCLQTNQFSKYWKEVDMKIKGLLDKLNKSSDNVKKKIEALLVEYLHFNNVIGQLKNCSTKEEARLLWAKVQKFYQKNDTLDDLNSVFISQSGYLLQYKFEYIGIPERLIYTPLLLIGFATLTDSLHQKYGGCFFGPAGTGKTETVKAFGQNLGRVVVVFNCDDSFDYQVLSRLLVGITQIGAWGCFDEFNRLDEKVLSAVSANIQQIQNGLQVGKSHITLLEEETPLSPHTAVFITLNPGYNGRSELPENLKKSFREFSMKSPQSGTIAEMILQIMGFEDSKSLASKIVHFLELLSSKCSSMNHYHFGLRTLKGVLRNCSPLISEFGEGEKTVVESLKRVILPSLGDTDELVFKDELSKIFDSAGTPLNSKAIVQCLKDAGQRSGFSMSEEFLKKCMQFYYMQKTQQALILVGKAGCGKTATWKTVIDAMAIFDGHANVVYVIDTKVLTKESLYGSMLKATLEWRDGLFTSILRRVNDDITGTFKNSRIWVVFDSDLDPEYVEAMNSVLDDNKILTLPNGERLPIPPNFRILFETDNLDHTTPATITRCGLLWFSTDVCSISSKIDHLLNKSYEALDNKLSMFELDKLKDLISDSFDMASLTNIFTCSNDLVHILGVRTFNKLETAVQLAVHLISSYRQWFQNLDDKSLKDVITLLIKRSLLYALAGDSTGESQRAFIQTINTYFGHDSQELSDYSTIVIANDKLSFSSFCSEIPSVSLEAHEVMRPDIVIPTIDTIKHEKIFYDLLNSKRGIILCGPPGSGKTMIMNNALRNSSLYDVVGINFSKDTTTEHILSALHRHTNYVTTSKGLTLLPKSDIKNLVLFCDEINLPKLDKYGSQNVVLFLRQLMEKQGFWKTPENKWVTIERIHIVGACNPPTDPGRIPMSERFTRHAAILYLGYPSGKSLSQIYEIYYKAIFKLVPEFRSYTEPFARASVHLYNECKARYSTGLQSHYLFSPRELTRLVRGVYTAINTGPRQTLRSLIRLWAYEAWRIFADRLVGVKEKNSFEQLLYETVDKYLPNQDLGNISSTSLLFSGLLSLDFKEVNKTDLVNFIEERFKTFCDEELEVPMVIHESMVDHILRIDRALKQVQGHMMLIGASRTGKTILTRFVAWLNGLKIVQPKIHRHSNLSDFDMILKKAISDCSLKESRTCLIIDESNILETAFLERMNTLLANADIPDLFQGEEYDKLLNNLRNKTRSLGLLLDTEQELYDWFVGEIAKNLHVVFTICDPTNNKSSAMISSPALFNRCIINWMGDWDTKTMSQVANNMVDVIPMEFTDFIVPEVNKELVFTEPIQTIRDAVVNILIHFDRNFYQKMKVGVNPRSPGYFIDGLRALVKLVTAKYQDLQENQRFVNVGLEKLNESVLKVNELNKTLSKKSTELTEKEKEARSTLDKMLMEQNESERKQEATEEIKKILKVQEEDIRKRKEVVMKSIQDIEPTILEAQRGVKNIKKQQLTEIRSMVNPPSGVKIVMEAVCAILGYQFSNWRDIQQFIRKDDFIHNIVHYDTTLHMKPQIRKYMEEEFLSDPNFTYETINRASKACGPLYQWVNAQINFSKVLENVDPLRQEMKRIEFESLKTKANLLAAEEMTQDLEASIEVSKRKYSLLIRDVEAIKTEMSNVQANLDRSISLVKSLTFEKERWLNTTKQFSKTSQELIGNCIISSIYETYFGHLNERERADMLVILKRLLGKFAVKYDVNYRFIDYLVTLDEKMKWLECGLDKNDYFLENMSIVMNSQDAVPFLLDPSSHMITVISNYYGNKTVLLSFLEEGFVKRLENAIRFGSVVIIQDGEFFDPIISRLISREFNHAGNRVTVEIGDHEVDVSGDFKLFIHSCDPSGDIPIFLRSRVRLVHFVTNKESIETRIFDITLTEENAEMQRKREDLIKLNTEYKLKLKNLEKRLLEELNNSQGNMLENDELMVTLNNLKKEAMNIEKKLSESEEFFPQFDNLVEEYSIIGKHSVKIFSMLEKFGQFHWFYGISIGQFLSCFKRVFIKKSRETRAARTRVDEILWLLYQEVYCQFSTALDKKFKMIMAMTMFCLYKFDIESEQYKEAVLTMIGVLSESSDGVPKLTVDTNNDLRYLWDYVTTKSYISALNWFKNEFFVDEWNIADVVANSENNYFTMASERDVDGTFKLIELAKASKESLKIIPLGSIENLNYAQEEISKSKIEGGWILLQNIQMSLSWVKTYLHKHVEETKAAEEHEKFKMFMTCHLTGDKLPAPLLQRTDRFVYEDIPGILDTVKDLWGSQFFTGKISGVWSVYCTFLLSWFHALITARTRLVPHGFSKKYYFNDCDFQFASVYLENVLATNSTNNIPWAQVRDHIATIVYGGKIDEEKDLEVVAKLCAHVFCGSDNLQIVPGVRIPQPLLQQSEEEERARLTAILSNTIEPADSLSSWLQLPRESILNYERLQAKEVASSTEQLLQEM
T1 sequence (P40960 whole entry, chain 2 of 4): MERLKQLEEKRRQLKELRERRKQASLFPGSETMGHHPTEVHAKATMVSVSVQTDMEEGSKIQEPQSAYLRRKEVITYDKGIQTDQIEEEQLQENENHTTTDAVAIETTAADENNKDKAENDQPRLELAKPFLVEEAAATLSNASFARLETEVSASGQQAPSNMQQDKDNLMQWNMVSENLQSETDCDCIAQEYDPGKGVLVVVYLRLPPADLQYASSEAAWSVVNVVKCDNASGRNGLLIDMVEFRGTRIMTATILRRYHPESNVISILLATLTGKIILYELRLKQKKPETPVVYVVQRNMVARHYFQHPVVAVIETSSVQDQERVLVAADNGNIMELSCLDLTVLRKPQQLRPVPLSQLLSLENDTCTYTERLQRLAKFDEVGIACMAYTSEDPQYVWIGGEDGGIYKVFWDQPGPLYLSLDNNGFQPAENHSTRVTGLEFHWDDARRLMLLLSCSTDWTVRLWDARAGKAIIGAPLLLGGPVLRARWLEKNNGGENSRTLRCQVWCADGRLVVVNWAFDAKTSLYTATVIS
T1 sequence (Q04949 whole entry, chain 3 of 4): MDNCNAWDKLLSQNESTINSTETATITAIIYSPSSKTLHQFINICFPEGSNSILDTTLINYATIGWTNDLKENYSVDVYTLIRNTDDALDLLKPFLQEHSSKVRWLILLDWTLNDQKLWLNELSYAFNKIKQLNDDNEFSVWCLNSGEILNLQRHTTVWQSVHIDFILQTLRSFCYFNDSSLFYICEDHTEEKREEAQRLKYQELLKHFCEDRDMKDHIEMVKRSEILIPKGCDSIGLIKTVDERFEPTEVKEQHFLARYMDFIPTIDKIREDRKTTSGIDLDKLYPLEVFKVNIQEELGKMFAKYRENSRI
T1 sequence (Q02647 whole entry, chain 4 of 4): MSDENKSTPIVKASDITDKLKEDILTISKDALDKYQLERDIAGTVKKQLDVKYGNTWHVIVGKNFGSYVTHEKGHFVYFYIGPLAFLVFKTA

[2] = target: the molecule itself; assay: mass photometry; yeast proteins; mixed 1:1 at 50-100 nM each, 1-2 min, measured at 10-20 nM; 50 mM Tris pH 8.0, 150 mM K-acetate
[3] = target: B5; assay: mass photometry; human proteins; preincubated at 0.5-1 µM for 5 min at room temperature, 1:1 molar ratio, measured at 5-20 nM; 90 mM HEPES-KOH pH 7.4, 50 mM K-acetate; settings: both partners purified
[4] = target: the molecule itself; assay: as above
[5] = target: B2; assay: mass photometry; yeast proteins; mixed 1:1 at 50-100 nM each, 1-2 min, measured at 10-20 nM; 50 mM Tris pH 8.0, 150 mM K-acetate; settings: both partners purified
[6] = target: T2, yeast dynein^∆ICN complex (Pac11 lacking its N-terminal 43 residues) (S. cerevisiae, UniProt P36022 1-4092; P40960 44-533; Q04949 1-312; Q02647 1-92, JF503-, JFX549- or JFX646-HaloTag ligand on the HaloTag); assay: TIRF microscopy microtubule recruitment assay; yeast proteins; dynein on taxol-stabilised microtubules held by anti-tubulin antibody; fluorescent partner flowed in, TEV buffer with 1 mM DTT, 5-10 min; intensity along microtubules; settings: both partners purified
T2 construct: dynein heavy chain Dyn1, S. cerevisiae; dynein intermediate chain Pac11, S. cerevisiae, N-terminal 43 residues deleted; dynein light-intermediate chain Dyn3, S. cerevisiae; dynein light chain Dyn2, S. cerevisiae; also called Pac11^∆ICN dynein; source: S. cerevisiae, all genes overexpressed from GAL1p; purified (IgG sepharose, TEV elution); not shown: 8His (also printed 6xHis), N-terminal, …

B1
binding result [1]: binds

B2
stoichiometry N [2]: 2 | binding result [1]: binds

B3
binding result [1]: binds

B4
stoichiometry N [3]: 1 LIS1 dimer per Ndel1 dimer

B5
stoichiometry N [4]: 2

B6
binding result [1]: binds

B7
stoichiometry N [5]: 1 Pac1 dimer per Ndl1 dimer | stoichiometry N [2]: 2 | binding result [1]: binds | binding result [6]: binds
